{"source": "paper PMC4445282", "about": "“Alpha-L-Fucosidase Isoenzyme iso2 from Paenibacillus thiaminolyticus” (BMC Biotechnology, 2015)", "substrate": "C[C@@H]1O[C@@H](Oc2ccc([N+](=O)[O-])cc2)[C@@H](O)[C@H](O)[C@@H]1O", "test": "purified protein", "type": "biochemical, Paenibacillus thiaminolyticus", "details": "50 mM phosphate pH 7.0, 37 °C (standard assay), substrate 0.01-35 mmol/L"}
{"protein": "α-L-fucosidase iso2 (Paenibacillus thiaminolyticus) (protein, His-tagged fusion from pET16b-αLF2 (NdeI/XhoI), tag kept; E. coli BL21(DE3); Ni-NTA; primers encode start MRYRQVH and end VVEYNE) MRYRQVHLDFHTSEHISDIGRNFSKKNFQEMLQLGHVNSITVFAKCHHGWAYFPSATNEIHPRLDFDLLGAQIEAAHEIGVKVPIYISVGFDEKLAWEKPQWLMRDEADRMNWVDSFMKPGYHQFCLNTPYLDLVIEQVQEVVRKYDGDGIFLDIVGERTCYCTTCLKQMQADGLDPHNKEDVIANGRRIYANYTTRIREAIDAIKPGLPVFHNAGHIHQGRRDLMGMNSHLELESLPTGGWGYDHFPLSARYAQPTGFHFLGMTGKFHTFWGEFGGYKHPNALRYETALSLANGARCSIGDQLHPGGQMDRATYELIGKAYAEVEAKEAWCVNAVNLADVALLTVEAAGVQQESGAMYSGKVDMGAVRMLLEGKILFDIVDLESDWSGYKVLILPDSIVMKDTILPKVEAFLAAGGKVLASGRSGLNVELTRQMLPLGFTDSGLNPFRPDYFRPLCDGMANLGEAAYVMYGDGRRIELTDGTELGRREDPYFNRQAFRFCSHQHAPSSEQEGGPGMVESAQGIYIAWNVFEDYATKGSLILKEMVLFALRRLLGEQITLKTTLPAQGVTTLQHQAAERRYINHLLYASPVKRGERVEIIEDMIPLQQVEVQLQLPVTDVKRVYLAPQMTEIEFKASGGDVQFTVPQLECHQMVVVEYNE", "values": [{"measurement": "Km", "result": "520 ± 50", "unit": "µM"}, {"measurement": "kcat", "result": "111 ± 3", "unit": "s⁻¹"}, {"measurement": "kcat/Km", "result": "213 ± 30 (mmol/L)^-1 s^-1"}]}
